Reference: patent publication US10772928B2, “Modulation and detection of a neuronal alternative splicing regulatory network for treatment and diagnosis of neurological disorders” (The Governing Council of the University of Toronto, priority 2014, dated 2020)

T1: nSR100 (Mus musculus, UniProt Q8BKA3)
T1 construct: host or cells: mouse N2A cells
T1 sequence (Q8BKA3 1-608): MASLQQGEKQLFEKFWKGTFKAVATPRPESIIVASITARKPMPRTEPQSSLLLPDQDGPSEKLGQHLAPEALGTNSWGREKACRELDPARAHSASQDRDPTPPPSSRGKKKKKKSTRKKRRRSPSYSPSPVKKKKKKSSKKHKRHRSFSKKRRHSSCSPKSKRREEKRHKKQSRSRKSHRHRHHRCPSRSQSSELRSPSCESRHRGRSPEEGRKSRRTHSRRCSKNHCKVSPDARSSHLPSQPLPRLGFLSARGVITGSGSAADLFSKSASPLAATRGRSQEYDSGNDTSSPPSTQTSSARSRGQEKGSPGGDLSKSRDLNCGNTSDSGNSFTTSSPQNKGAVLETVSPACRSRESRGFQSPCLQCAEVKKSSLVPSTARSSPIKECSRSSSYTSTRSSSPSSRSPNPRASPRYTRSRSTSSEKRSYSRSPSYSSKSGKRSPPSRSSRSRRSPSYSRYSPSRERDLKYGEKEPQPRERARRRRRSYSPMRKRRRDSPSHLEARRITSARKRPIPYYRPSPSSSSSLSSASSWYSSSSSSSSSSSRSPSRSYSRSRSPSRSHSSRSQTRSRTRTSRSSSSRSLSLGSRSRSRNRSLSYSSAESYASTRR


Biological target: T1, nSR100
Test: AP-MS nSR100 interaction partners from mouse N2A cells (Table 5)
Format: binding
Conditions: for AvgP (average of the SAINT scores) / MaxP (maximal SAINT score): bait Srrm4; for FoldChange between the prey Avg spectra of the bait and control purifications: bait Srrm4, 0.1 added to prevent division by 0; for AvgSpec (average number of spectra per replicate): bait Srrm4, 2 replicates; for Spectra (number of spectra for the prey in the purification of the bait): AP-MS; for SpecSum: bait Srrm4, sum of spectra over 2 replicates
[1] = bait Srrm4, biological replicate 1 (first number of the cell)
[2] = bait Srrm4, biological replicate 2 (second number of the cell)

Source text: By applying affinity purification coupled to mass-spectrometry (AP-MS), several interaction nSR100 partner proteins were detected that provide insight into mechanisms of post-translational regulation of nSR100 levels.

Molecule	AvgP (average of the SAINT scores)	MaxP (maximal SAINT score)	FoldChange between the prey Avg spectra of the bait and control purifications	AvgSpec (average number of spectra per replicate)	Spectra (number of spectra for the prey in the purification of the bait) [1]	Spectra (number of spectra for the prey in the purification of the bait) [2]	SpecSum
Rbmx2 (protein, UniProt Q8R0F5 1-326, looked up) RNA-binding motif protein, …: MNPLTKVKLINELNEREVQLGVAEKVSWHSEYKHSAWIFVGGLPYELTEGDIICVFSQYGEIVNINLVRDKKTGKSKGFCFLCYEDQRSTVLAVDNFNGIKIKGRTIRVDHVSNYRAPQESEDVDDVTRELQEKGCGVKTPPSSPPEVSEDEDAKLTKKHKKDKKEKKKRKKEKTEGQAQAEQPSCSRSATVKEKKDERASRKHSSKTSERAQKSEHRESKKSHSGSPDGRSSYHARAEDPECKARKEKPKHEHKSASRREAEEKSRERERGRSSGTHSGRHRGHSDGRSHRSRSRSRSPDKSHRHKKYRHSRERDSYHGSDRRHH	0.96	0.98	9	4.5	4	5	9
Bcas2 (protein, UniProt Q9D287 2-225, looked up) Pre-mRNA-splicing factor SPF27: AGTGLVAGEVVVDALPYFDQGYEAPGVREAAAALVEEETRRYRPTKNYLSYLTAPDYSAFETDIMRNEFERLAARQPIELLSMKRYELPAPSSGQKNDITAWQECVNNSMAQLEHQAVRIENLELMSQHGCNAWKVYNENLVHMIEHAQKELQKLRKHIQDLNWQRKNMQLTAGSKLREMESNWVSLVSKNYEIERTIVQLENEIYQIKQQHGEANKENIRQDF	0.97	0.99	25	2.5	2	3	5
Crnkl1 (protein, UniProt P63154 1-690, looked up) Crooked neck-like protein 1: MAASTAAGKQRIPKVAKVKNKAPAEVQITAEQLLREAKERELELLPPPPQQKITDEEELNDYKLRKRKTFEDNIRKNRTVISNWIKYAQWEESLKEIQRARSIYERALDVDYRNITLWLKYAEMEMKNRQVNHARNIWDRAITTLPRVNQFWYKYTYMEEMLGNVAGARQVFERWMEWQPEEQAWHSYINFELRYKEVERARTIYERFVLVHPAVKNWIKYARFEEKHAYFAHARKVYERAVEFFGDEHMDEHLYVAFAKFEENQKEFERVRVIYKYALDRISKQEAQELFKNYTIFEKKFGDRRGIEDIIVSKRRFQYEEEVKANPHNYDAWFDYLRLVESDAEADTVREVYERAIANVPPIQEKRHWKRYIYLWVNYALYEELEAKDPERTRQVYQASLELIPHKKFTFAKMWLYYAQFEIRQKNLPFARRALGTSIGKCPKNKLFKGYIELELQLREFDRCRKLYEKFLEFGPENCTSWIKFAELETILGDIERARAIYELAISQPRLDMPEVLWKSYIDFEIEQEETERTRNLYRQLLQRTQHVKVWISFAQFELSSGKEGSVAKCRQIYEEANKTMRNCEEKEERLMLLESWRSFEDEFGTVSDKERVDKLMPEKVKKRRKVQADDGSDAGWEEYYDYIFPEDAANQPNLKLLAMAKLWKKQQQEREAAEQDPDKDIDESESSSF	0.95	0.95	20	2	2|2	2|2	4
Sf3a2 (protein, UniProt Q62203 1-475, looked up) Splicing factor 3A subunit 2: MDFQHRPGGKTGSGGVASSSESNRDRRERLRQLALETIDINKDPYFMKNHLGSYECKLCLTLHNNEGSYLAHTQGKKHQTNLARRAAKEAKEAPAQPAPEQVKVEVKKFVKIGRPGYKVTKQRDTEMGQQSLLFQIDYPEIAEGIMPRHRFMSAYEQRIEPPDRRWQYLLMAAEPYETIAFKVPSREIDKAEGKFFFLQFHFKMEKPPAPPSLPAGPPGVKRPPPPLMNGLPPRPPLPDALPPPPPGGLPLPPMPPTGPAPSGPPGPPQMPPPAPGVHPPAPVVHPPTSGVHPPAPGVHPPAPVVHPPTSGVHPPAPGVHPPTPGVHPPAPGVHPPAPGVHPPAPGVHPPTPGVHPPAPGVHPPAPGVHPPAPGVHPPPSAGVHPQAPGVHPPAPAVHPQAPGVHPPAPGIHPQAPGVHPQPPPGVHPAAPGVHPQPPGVHPSNPGVHPAPMPPMLRPPLPSDGPGNMPPPPPGN	0.97	1	30	3	2	4	6
Luc7l (protein, UniProt Q9CYI4 1-371, looked up) Putative RNA-binding protein …: MSAQAQMRALLDQLMGTARDGDETRQRVKFTDDRVCKSHLLDCCPHDILAGTRMDLGECTKIHDLALRADYEIASKERDLFFELDAMDHLESFIAECDRRTELAKKRLAETQEEISAEVSAKAEKVHELNEEIGKLLAKAEQLGAEGNVDESQKILMEVEKVRAKKKEAEEEYRNSMPASSFQQQKLRVCEVCSAYLGLHDNDRRLADHFGGKLHLGFIQIREKLDQLRKTVAEKQEKRNQDRLRRREEREREERLGRRSGSRTRDRRRSRSRDRRRRRSRSTSRERRKFSRSRSRDRYRRHRSRSRSHSRGHRRASRDRSTKYKFSRERSLREESWEYGRNERGPTDWRLENSNGKTASRRSEEKEAGEI	0.95	0.99	3.17	19	18	20	38
Sf3b2 (protein, UniProt Q3UJB0 1-878, looked up) Splicing factor 3B subunit 2: MAAEHPEPPKGELQLPPPPPPGHYGAWAAQELQARLAEIGAPIQGSREELVERLQTYTRQTGIVLNRPVLRGEDGDKAAPPPMSAQLSGIPMPPPPMGLPPLQPPPPPPPPPPGLGLGFPMAHPPNLGPPPPLRVGEPVALSEEERLKLAQQQAALLMQQEERAKQAAVLMEQERQQEIAKMGTAVPRPPQDMGQLGVRTPLGPRVAAPVGPVVPTPTVLPMGAPVPRPRGPPPPPGDENREMDDPSVGPKIPQALEKILQLKESRQEEMNSQQEEEEMETDTRSSLGQSASETEEDTVSISKKEKNRKRRNRKKKKKPQRVRAASSESSGDREKDSGRSRGSDPPAADVEIEYVTEEPEIYEPNFIFFKRIFEAFKLTDDVKKEKEKEPEKLDKMESSAVPKKKGFEEEHKDSDDDSSDDEQEKKPEAPKLSKKKLRRMNRFTVAELKQLVARPDVVEMHDVTAQDPKLLVHLKATRNSVPVPRHWCFKRKYLQGKRGIEKPPFELPDFIKRTGIQEMREALQEKEEQKTMKSKMREKVRPKMGKIDIDYQKLHDAFFKWQTKPKLTIHGDLYYEGKEFETRLKEKKPGDLSDELRISLGMPVGPNAHKVPPPWLIAMQRYGPPPSYPNLKIPGLNSPIPESCSFGYHAGGWGKPPVDETGKPLYGDVFGTNAAEFQTKTEEEEIDRTPWGELEPSDEESSEEEEEEESDEDKPDETGFITPADSGLITPGGFSSVPAGMETPELIELRKKKIEEAMDGSETPQLFTVLPEKRTATVGGAMMGSTHIYDMSTVMSRKGPAPELQGVEVALAPEELELDPMAMTQKYEEHVREQQAQVEKEDFSDMVAEHAAKQKQKKRKAQPQDSRGGSKKYKEFKF	0.96	0.96	3.08	20	20|20	20|20	40
